From US20160009823A1 (Hoffmann-La Roche, published 2016)

B1: recombinant humanized <Dig> IgG antibody (antibody, V domains shown)
VH: QVQLVESGGGLVKPGGSLRLSCAASGFTFSDYAMSWIRQAPGKGLEWVSSINIGATYIYYADSVKGRFTISRDNAKNSLYLQMNSLRAEDTAVYYCARPGSPYEYDKAYYSMAYWGQGTTVTVSS
VL: DIQMTQSPSSLSASVGDRVTITCRASQDIKNYLNWYQQKPGKAPKLLIYYSSTLLSGVPSRFSGSGSGTDFTLTISSLQPEDFATYYCQQSITLPPTFGGGTKVEIKR
notes: also called hu<DIG> IgG; <DIG>hu2; not shown: hinge-CH2-CH3 of human IgG1
B2: bispecific <CD33>-<DIG> antibody (bispecific antibody, human IgG1, kappa)
heavy: not shown
light: DIQLTQSPSTLSASVGDRVTITCRASESLDNYGIRFLTWFQQKPGKAPKLLMYAASNQGSGVPSRFSGSGSGTEFTLTISSLQPDDFATYYCQQTKEVPWSFGQGGTKVEVKEIKRTVAAPSVFIFPPSDEQLKSGTASVVCLLNNFYPREAKVQWKVDNALQSGNSQESVTEQDSKDSTYSLSSTLTLSKADYEKHKVYACEVTHQGLSSPVTKSFNRGEC
B3: <VEGFR2(D1F7)-DIG>_001 (bispecific antibody, human IgG1, kappa)
heavy: not shown
light: QSVLTQPPSASGTPGQRVTISCSGSTSNIGTNTANWFQQLPGTAPKLLIHNNNQRPSGVPDRFSGSKSGTSASLAISGLQSEDEADYYCAAWDDSLNGHWVFGGGTKLTVLRTVAAPSVFIFPPSDEQLKSGTASVVCLLNNFYPREAKVQWKVDNALQSGNSQESVTEQDSKDSTYSLSSTLTLSKADYEKHKVYACEVTHQGLSSPVTKSFNRGEC
B4: AKH-5 (bispecific antibody)
chain: QVQLLQSGAELKKPGESLKISCKGSGYSFTSYWIAWVRQMPGKGLEYMGLIYPGDSDTKYSPSFQGQVTISVDKSVSTAYLQWSSLKPSDSAVYFCARHDVGYCSSSNCAKWPEYFQHWGQGTLVTVSSGGGGSGGGGSGGGGSGGGGSQSVLTQPPSVSAAPGQKVTISCSGSSSNIGNNYVSWYQQLPGTAPKLLIYGHTNRPAGVPDRFSGSKSGTSASLAISGFRSEDEADYYCASWDYTLSGWVFGGGTKLTVLGGGGGSGGSLAALTAHQACHLPLETFTRHRQPRGWEQLEQCGYPVQRLVALYLAARLSWNQVDQVIRNALASPGSGGDLGEAIREQPEQARLALTLAAAESERFVRQGTGNDGGGGSGGGGSQVQLVESGGGLVKPGGSLRLSCAASGFTFSDYAMSWIRQAPGKCLEWVSSINIGATYIYYADSVKGRFTISRDNAKNSLYLQMNSLRAEDTAVYYCARPGSPYEYDKAYYSMAYWGQGTTVTVSSGGGGSGGGGSGGGGSGGGGSDIQMTQSPSSLSASVGDRVTITCRASQDIKNYLNWYQQKPGKAPKLLIYYSSTLLSGVPSRFSGSGSGTDFTLTISSLQPEDFATYYCQQSITLPPTFGCGTKVEIKHHHHHH
notes: also called <HER2> scFv-PExII-<DIG> scFv-His6; drawn as <Her2> - PExI - <DIG> - 6xHis
B5: hybridoma-derived murine <Dig> 19-11 antibody (antibody, V domains shown)
VH: EVQLVESGGGLVKPGGSLKLSCAVSGFTFSDYAMSWIRQTPENRLEWVASINIGATYAYYPDSVKGRFTISRDNAKNTLFLQMSSLGSEDTAMYYCARPGSPYEYDKAYYSMAYWGPGTSVTVSS
VL: DVQMTQSTSSLSASLGDRVTISCRASQDIKNYLNWYQQKPGGTVKLLIYYSSTLLSGVPSRFSGRGSGTDFSLTITNLEREDIATYFCQQSITLPPTFGGGTKLEIK
notes: also called murine DIG-IgG 19-11; <DIG>M-19-11

Key:
[1] = target: mono-digoxygenated protein DIG-myoglobin; experiment: SPR (Biacore), DIG-Myoglobin as analyte
[2] = target: digoxygenated protein Dig-BP4; experiment: SPR (Biacore), antibody captured by anti-human IgG, DIG-BP4 as analyte
[3] = target: mono-digoxygenated protein DIG-myoglobin; experiment: SPR (Biacore), DIG-Myoglobin as analyte, replicate
human CD33-Fc fusion = target: T1, human CD33-Fc fusion (human, UniProt P20138 18-259); experiment: SPR, <CD33>-<DIG> on human CD33-Fc fusion as ligand, then DIG-siRNA
T1 construct: not shown: Fc part not described

mouse VEGFR2-Fc = target: T2, mouse VEGFR2-Fc; experiment: SPR, drawn table under the head 'Affinity for DIG-siRNA' with a Capture column
T2 chain: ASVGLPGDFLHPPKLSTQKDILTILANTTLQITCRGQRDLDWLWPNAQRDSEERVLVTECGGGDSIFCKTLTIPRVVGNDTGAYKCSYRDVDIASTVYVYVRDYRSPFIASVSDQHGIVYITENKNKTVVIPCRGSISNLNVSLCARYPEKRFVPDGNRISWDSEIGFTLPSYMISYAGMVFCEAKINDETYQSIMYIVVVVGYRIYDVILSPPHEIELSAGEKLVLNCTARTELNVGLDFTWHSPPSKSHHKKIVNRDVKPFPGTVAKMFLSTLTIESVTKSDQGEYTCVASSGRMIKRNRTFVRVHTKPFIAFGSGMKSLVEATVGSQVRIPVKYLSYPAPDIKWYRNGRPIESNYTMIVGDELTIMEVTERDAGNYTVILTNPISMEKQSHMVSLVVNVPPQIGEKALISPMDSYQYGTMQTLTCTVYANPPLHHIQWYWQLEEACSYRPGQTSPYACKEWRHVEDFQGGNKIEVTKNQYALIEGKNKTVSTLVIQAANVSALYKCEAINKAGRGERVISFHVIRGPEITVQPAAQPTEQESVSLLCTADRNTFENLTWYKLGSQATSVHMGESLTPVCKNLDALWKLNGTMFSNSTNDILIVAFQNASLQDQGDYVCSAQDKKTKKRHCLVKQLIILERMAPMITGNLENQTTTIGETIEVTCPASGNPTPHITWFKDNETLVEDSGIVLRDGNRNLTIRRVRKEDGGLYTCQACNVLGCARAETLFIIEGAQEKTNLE

human VEGFR2-Fc = target: T3, human VEGFR2-Fc; experiment: as above
T3 chain: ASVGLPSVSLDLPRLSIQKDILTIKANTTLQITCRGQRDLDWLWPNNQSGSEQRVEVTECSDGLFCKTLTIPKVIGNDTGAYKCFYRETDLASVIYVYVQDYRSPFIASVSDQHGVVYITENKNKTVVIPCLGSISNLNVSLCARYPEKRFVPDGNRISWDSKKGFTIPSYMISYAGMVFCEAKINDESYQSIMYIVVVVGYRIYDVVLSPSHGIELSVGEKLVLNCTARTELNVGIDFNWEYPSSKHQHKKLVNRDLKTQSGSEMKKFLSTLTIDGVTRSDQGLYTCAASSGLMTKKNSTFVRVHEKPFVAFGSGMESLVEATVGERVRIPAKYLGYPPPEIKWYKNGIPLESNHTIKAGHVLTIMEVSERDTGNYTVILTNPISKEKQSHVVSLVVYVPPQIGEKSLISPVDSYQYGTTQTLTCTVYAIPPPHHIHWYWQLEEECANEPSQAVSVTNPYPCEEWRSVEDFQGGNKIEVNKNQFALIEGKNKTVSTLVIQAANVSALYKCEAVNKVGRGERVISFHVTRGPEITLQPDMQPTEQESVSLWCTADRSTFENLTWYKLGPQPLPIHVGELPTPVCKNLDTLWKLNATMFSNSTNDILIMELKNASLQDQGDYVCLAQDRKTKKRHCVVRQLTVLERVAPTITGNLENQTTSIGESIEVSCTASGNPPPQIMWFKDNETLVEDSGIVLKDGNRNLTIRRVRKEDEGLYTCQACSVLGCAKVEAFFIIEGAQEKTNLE

[4] = target: T4, recombinantly produced soluble extracellular domain of the RTK Her2 (UniProt P04626 23-652); experiment: SPR (BiaCore), zoom; AKH-5 captured, Her2 and siRNA-DIG in both orders
T4 construct: extracellular domain; also called Her2-ECD; Her2ECD

[5] = target: mono-digoxygenated protein DIG-myoglobin; experiment: SPR (Biacore), DIG-Myoglobin as analyte; remark: listed apart in the source
[6] = target: digoxygenated protein Dig-BP4; experiment: SPR (Biacore), antibody captured by anti-mouse IgG, DIG-BP4 as analyte
[7] = target: digoxygenated protein Dig-BP4; experiment: SPR (Biacore); unit differs from Table 3 (33 pM)

mono-digoxygenated protein DIG-myoglobin, sequence (P68082 2-154): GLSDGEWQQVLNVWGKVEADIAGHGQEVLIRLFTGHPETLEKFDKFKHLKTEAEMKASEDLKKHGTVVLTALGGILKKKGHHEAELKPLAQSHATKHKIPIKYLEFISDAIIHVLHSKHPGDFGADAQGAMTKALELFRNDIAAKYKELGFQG
T1 sequence (P20138 18-259): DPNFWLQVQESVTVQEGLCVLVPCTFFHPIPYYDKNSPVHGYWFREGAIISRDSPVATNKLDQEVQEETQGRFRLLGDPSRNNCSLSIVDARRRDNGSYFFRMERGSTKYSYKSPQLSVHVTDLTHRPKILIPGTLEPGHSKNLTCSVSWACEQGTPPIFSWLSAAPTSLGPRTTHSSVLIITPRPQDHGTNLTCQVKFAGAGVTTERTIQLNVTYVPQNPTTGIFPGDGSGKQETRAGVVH

| Binder | Kd [1] | koff [1] | kon [1] | Kd [3] | koff [3] | kon [3] | other results |
| --- | --- | --- | --- | --- | --- | --- | --- |
| B1 | 15.8 nM | 0.00982 s⁻¹ | 620000 M⁻¹ s⁻¹ | 11.8 nM | 0.00881 s⁻¹ | 749000 M⁻¹ s⁻¹ | Kd [2]: < 0.076 nM |
| B2 | – | – | – | – | – | – | binding result (human CD33-Fc fusion): binds |
| B3 | – | – | – | – | – | – | binding result (mouse VEGFR2-Fc): binds; binding result (human VEGFR2-Fc): binds |
| B4 | – | – | – | – | – | – | binding result [4]: binds |
| B5 | 0.386 nM | 0.000676 s⁻¹ | 1.75e+06 M⁻¹ s⁻¹ | 0.295 nM | 0.000675 s⁻¹ | 2.28e+06 M⁻¹ s⁻¹ | fold better affinity than <DIG>-hu2 and the disulfide-stabilized <DIG> scFv [5]: ~100 fold; Kd [6]: 0.033 nM; Kd [7]: 33 nM |
